Test results published in publication PMC11681865, “Oligomerization of protein arginine methyltransferase 1 and its functional impact on substrate arginine methylation” (The Journal of Biological Chemistry, 2024).

Tests used:
R4 peptide = experiment: Radiometric methyltransferase activity of PRMT1 mutants on R4 peptide; type: biochemical; conditions: various mutant concentrations, 50 μM peptide, 2 μM [3H]-SAM and 48 μM SAM, 30 min
Text: (§1) Constant PRMT1-WT concentration and various PRMT1-E153Q concentrations were maintained in the aqueous buffer prior to adding peptide and SAM to initiate the reaction. The reaction was quenched with isopropanol. The reaction mixture was loaded on the P81 filter paper that was air dried, washed, and immersed in scintillation cocktail for scintillation counting. […] To eliminate this possibility, we created a double mutant (PRMT1-H293G/E153Q) to further abolish PRMT1 activity. […] We then tested PRMT1-WT activity in the presence of various concentrations of PRMT1-H293G/E153Q (Fig. 7, G–L). […] These increasing trends were the same as that of PRMT1-E153Q. […] Again, similar to Figure 6, D–F, the increase in kcat started to slow down a bit at >1 μM concentrations of PRMT1-E153Q or PRMT1-H293G/E153Q, which is likely due to substrate overconsumption under these conditions.
To perform PRMT1 and PRMT1 mutants (PRMT1-E153Q and PRMT1-H293G/E153Q) concentration-dependent measurement, each reaction contained various concentration of PRMT1 or PRMT1 mutant, 50 μM of peptide, and 50 μM SAM (48 μM cold and […] ^3H-SAM). The reaction buffer consisted of 50 mM Hepes pH 8.0, 10 mM NaCl, 0.5 mM EDTA, and 0.5 mM DTT. The reaction was incubated at room temperature for 30 min after being initiated with ^3H-SAM SAM. An equal amount of 100% isopropanol to the total reaction volume was used to quench the reaction. […]

PRMT1-WT = target: T1, PRMT1-WT (Homo sapiens, UniProt Q99873); experiment: Radiometric filter-binding assay, PRMT1-WT activity in presence of inactive PRMT1 mutants; type: biochemical; conditions: 0.05 μM PRMT1-WT, mutant 20 min on ice, 50 μM peptide, 2 μM [3H]-SAM and 48 μM SAM, 30 min
T1 construct: His-MBP (N, cleaved yes); made in house; host or cells: Escherichia coli BL21 (DE3) RIPL
T1 sequence (Q99873 11-353 isoform Q99873-3): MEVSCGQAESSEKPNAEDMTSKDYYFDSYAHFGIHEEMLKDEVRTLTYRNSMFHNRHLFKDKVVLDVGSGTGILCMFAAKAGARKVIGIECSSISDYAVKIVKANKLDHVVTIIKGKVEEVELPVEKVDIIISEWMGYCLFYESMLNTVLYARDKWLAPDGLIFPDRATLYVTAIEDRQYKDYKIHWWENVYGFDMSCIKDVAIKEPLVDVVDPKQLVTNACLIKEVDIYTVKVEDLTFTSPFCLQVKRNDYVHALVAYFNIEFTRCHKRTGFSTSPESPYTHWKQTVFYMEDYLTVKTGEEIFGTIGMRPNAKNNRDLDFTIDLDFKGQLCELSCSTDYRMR
Text: as §1
Figure 7 Arginine methylation of various peptides by high-order oligomeric PRMT1-WT and PRMT1 mutants. Filter-binding assay was used to characterize the methyltransferase activity. Firstly, 0.05 μM of PRMT1 was incubated with various concentrations of PRMT1-E153Q or PRMT1-H293G/E153Q on ice for 20 min. Afterward, 2 μM radioactive [3H]-SAM and 48 μM SAM and 50 μM of indicated peptides was added and incubated for 30 min before quenching the reaction with 100% isopropanol. […]

PRMT1-H293G/E153Q: double mutant created to further abolish PRMT1 activity
methyltransferase activity of PRMT1 mutant (R4 peptide): even weaker than PRMT1-E153Q, greatly diminished to near background level | kcat of PRMT1-WT (CPM / PRMT1-WT concentration) in presence of mutant (PRMT1-WT): increased as a function of PRMT1-H293G/E153Q concentration | methylated product amount (CPM) of PRMT1-WT in presence of mutant (PRMT1-WT): gradually went up as the concentrations of the double mutant increased
